FireProtDB (doi:10.1021/bi060907v)

B1: Ribonuclease HII, O74035 (parent)
chain: MKIAGIDEAGRGPVIGPMVIAAVVVDENSLPKLEELKVRDSKKLTPKRREKLFNEILGVLDDYVILELPPDVIGSREGTLNEFEVENFAKALNSLKVKPDVIYADAADVDEERFARELGERLNFEAEVVAKHKADDIFPVVSAASILAKVTRDRAVEKLKEEYGEIGSGYPSDPRTRAFLENYYREHGEFPPIVRKGWKTLKKIAEKVESEKKAEERQATLDRYFRKV

Variants of: B1
Settings: Thermococcus kodakarensis (strain ATCC BAA-918 / JCM 12380 / KOD1), pH 9, reversible: Yes, structure 1IO2, whole UniProt chain shown; for ddG of mutation (higher = less stable) / denaturant m value / denaturant midpoint (higher = more stable): 50 °C, GdnHCl, CD, Tris-HCl 20 mM; for Tm / change of melting temperature, mutant - wild type (higher = more stable) / unfolding enthalpy (calorimetric) / unfolding enthalpy (van 't Hoff): Thermal, DSC, Gly-NaOH 20 mM

| Variant | ddG of mutation (higher = less stable) [kcal/mol] | denaturant m value [kcal/mol/M] | denaturant midpoint (higher = more stable) [M] | Tm [°C] | change of melting temperature, mutant - wild type (higher = more stable) [°C] | unfolding enthalpy (calorimetric) [kcal/mol] | unfolding enthalpy (van 't Hoff) [kcal/mol] |
| --- | --- | --- | --- | --- | --- | --- | --- |
| D105A | -1.58 | 5.66 | 2.17 | 89.4 | 4.2 | 170 | 162 |
| D135A | -2.56 | 4.85 | 2.37 | 90.4 | 5.2 | 147 | 153 |
| D7N | -1.67 | 4.45 | 2.18 | 88.3 | 3.1 | 137 | 163 |
| E8A | -2.65 | 4.73 | 2.39 | 93.2 | 8 | 171 | 150 |
| E8Q | -0.6 | 3.73 | 1.97 | 85.9 | 0.6 | 158 | 163 |
